This assay has as its target human transferrin receptor 1 (human) (UniProt P02786). The experiment in a line: Carterra LSA biosensor, 25C; IgG captured on anti-IgG lawn, hTfR1 injected; 1:1 Langmuir fit.
UniProt P02786, sequence (P02786 89-760 limits assumed): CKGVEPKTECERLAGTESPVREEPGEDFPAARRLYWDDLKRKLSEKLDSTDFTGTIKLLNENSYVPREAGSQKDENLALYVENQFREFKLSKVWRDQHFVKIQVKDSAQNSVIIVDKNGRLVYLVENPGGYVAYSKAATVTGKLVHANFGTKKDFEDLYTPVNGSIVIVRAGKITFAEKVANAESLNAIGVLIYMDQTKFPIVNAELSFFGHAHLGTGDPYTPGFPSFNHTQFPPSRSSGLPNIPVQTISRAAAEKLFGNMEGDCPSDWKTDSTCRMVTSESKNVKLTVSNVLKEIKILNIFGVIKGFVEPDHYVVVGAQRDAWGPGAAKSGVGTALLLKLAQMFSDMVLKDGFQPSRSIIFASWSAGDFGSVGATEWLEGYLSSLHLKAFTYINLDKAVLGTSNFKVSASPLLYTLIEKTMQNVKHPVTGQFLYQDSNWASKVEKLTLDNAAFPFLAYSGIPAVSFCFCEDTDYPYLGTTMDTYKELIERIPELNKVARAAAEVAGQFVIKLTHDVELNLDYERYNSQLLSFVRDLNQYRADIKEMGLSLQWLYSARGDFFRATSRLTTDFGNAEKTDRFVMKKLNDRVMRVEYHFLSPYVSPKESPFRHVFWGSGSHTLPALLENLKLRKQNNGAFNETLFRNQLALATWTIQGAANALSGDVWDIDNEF

In turn, “OKT9 mIgG (known anti-TfR1 antibody, control)” came in with a Kd of 0.536 nM and a kon of 774000 M⁻¹ s⁻¹.
